Results: paper doi:10.1101/2022.05.13.491839 (bioRxiv, 2022)

What was measured:
Assay in all cases: liposome flotation assay
VAP-A^His WT = target: T1, VAP-A^His WT (human, UniProt Q9P0L0 8-230)
T1 sequence (looked up): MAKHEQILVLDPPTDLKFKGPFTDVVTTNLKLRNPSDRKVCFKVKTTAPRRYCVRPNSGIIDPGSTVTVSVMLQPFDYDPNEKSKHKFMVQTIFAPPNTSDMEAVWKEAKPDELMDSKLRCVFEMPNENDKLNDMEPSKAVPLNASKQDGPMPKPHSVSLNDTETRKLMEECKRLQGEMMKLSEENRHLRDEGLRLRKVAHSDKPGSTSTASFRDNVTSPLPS

VAP-A^His sL1/2 = target: T2, VAP-A^His sL1/2 (human, UniProt Q9P0L0 8-132; Q9P0L0 165-206)
T2 chain: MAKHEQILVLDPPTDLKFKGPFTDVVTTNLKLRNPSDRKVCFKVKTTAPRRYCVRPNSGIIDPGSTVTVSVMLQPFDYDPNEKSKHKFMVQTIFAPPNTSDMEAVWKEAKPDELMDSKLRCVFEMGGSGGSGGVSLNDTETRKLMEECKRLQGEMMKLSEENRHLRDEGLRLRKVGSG

VAP-A^His sL2 = target: T3, VAP-A^His sL2 (human, UniProt Q9P0L0 8-206)
T3 chain: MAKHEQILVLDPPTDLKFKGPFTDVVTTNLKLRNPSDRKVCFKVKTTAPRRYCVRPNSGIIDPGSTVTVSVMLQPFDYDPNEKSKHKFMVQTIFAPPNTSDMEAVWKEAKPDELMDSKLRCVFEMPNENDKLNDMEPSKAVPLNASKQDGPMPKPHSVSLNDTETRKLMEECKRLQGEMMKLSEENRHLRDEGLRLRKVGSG

VAP-A^His sL1 = target: T4, VAP-A^His sL1 (human, UniProt Q9P0L0 8-132; Q9P0L0 165-230)
T4 chain: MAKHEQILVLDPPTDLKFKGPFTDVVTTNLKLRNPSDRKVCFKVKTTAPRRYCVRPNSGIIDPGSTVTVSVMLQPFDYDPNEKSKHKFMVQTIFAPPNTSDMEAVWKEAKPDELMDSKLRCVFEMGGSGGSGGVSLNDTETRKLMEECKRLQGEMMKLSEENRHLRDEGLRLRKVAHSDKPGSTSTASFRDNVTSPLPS

Measured: binding result

WCSGKGDMSDEDDENEFFDAPEIITMPENLGH [FFAT peptide]
binds: all assays above
